# Data from patent publication US20230201308A1, “TREATMENT OF CORONAVIRUS INFECTION WITH […]” (Eiger Biopharmaceuticals, Inc., priority 2020, published 2023).
# B1: pegylated interferon lambda-1a (protein)
# chain: MKPTTTGKGCHIGRFKSLSPQELASFKKARDALEESLKLKNWSCSSPVFPGNWDLRLLQVRERPVALEAELALTLKVLEAAAGPALEDVLDQPLHTLHHILSQLQACIQPQPTAGPRPRGRLHHWLHRLQEAPKKESAGCLEASVTFNLFRLLTRDLKYVADGNLSLRTSTHPEST
# modifications: PEG
# notes: 180 mcg subcutaneous injection
# Assays:
# SARS-CoV-2 = experiment: Second trial: outpatients with mild to moderate COVID-19, SARS-CoV-2 RNA viral load and clearance; type: in vivo, human
# Method: Using the methods and criteria described above in Examples 1-3, a second trial was performed to assess interferon lambda for immediate antiviral therapy at diagnosis in COVID-19 infections. The second trial included a randomized trial of pegylated interferon lambda in outpatients with mild to moderate COVID-19 infection.
# Thirty participants were randomly assigned to receive 180 mcg pegylated interferon lambda-1a, and 30 participants were assigned to receive a saline placebo. Patients were followed for 14 days. Nasopharyngeal samples were collected. The baseline SARS-CoV-2 viral load in the interferon lambda group was 6.2 log10 copies/mL and was 4.9 log10 copies/mL in the placebo group. In the interferon lambda group (19 subjects) and placebo (16 subjects) groups, there were a total of 35 subjects with viral loads great or equal to 6 log10 copies/mL.
# [1] = Third trial (TOGETHER): treatment emergent adverse events and drug adherence; type: in vivo, human
# Source text: An adverse event (AE) is any adverse change from the participant's baseline (pre-treatment) condition, including intercurrent illness which occurs during the course of the trial, after the consent form has been signed, whether the event is considered related to treatment or not.
# A serious adverse event (SAE) is any adverse event that at any dose: • results in death (grade 5 event) • is life-threatening (grade 4 event) • requires inpatient hospitalization or prolongation of existing hospitalization • results in persistent or significant disability or incapacity • is a congenital anomaly/birth defect
# Study personnel collected outcome data via in-person, and via telephone or WhatsApp using video-teleconferencing on Days 1, 2, 3, 4, 5, 7, 10, 14, and 28. Adverse events were recorded at the time they occurred. All serious and non-serious adverse events were reported to study personnel as per local regulatory requirements. Reportable adverse events included serious adverse events, adverse events resulting in study medication discontinuation, and adverse events assessed as possibly related to study medication.
# [2] = baseline RNA above 10^6 copies/mL
# [3] = baseline viral load below 10^6 copies/mL
# [4] = ITT preliminary, n=916 vs placebo 1020
molecule,measurement,setting,value
B1,OR of response (clearance) at Day 7 vs Placebo,"SARS-CoV-2; Adjusted for Asymptomatic at baseline, all patients",2.91
same,OR of response (clearance) at Day 7 vs Placebo,"SARS-CoV-2; Adjusted for Asymptomatic at baseline, ≥10E6 copies/mL",0.00
same,OR of response (clearance) at Day 7 vs Placebo,"SARS-CoV-2; Adjusted for BMI, all patients",2.37
same,OR of response (clearance) at Day 7 vs Placebo,"SARS-CoV-2; Adjusted for BMI, ≥10E6 copies/mL",6.73
same,OR of response (clearance) at Day 7 vs Placebo,"SARS-CoV-2; Adjusted for IFNL4 genotype, all patients",2.24
same,OR of response (clearance) at Day 7 vs Placebo,"SARS-CoV-2; Adjusted for IFNL4 genotype, ≥10E6 copies/mL",7.66
same,OR of response (clearance) at Day 7 vs Placebo,"SARS-CoV-2; Adjusted for age, all patients",2.48
same,OR of response (clearance) at Day 7 vs Placebo,"SARS-CoV-2; Adjusted for age, ≥10E6 copies/mL",9.42
same,OR of response (clearance) at Day 7 vs Placebo,"SARS-CoV-2; Adjusted for comorbidity, all patients",2.35
same,OR of response (clearance) at Day 7 vs Placebo,"SARS-CoV-2; Adjusted for comorbidity, ≥10E6 copies/mL",10.46
same,OR of response (clearance) at Day 7 vs Placebo,"SARS-CoV-2; Adjusted for sex, all patients",2.36
same,OR of response (clearance) at Day 7 vs Placebo,"SARS-CoV-2; Adjusted for sex, ≥10E6 copies/mL",6.44
same,OR of response (clearance) at Day 7 vs Placebo,"SARS-CoV-2; Adjusted for viral load at baseline, all patients",4.12
same,OR of response (clearance) at Day 7 vs Placebo,"SARS-CoV-2; Adjusted for viral load at baseline, ≥10E6 copies/mL",8.16
same,OR of response (clearance) at Day 7 vs Placebo,"SARS-CoV-2; Adjusted for viral load with interaction, baseline 10E3 copies/mL",1.45
same,OR of response (clearance) at Day 7 vs Placebo,"SARS-CoV-2; Adjusted for viral load with interaction, baseline 10E4 copies/mL",1.88
same,OR of response (clearance) at Day 7 vs Placebo,"SARS-CoV-2; Adjusted for viral load with interaction, baseline 10E5 copies/mL",2.43
same,OR of response (clearance) at Day 7 vs Placebo,"SARS-CoV-2; Adjusted for viral load with interaction, baseline 10E6 copies/mL",3.14
same,OR of response (clearance) at Day 7 vs Placebo,"SARS-CoV-2; Adjusted for viral load with interaction, baseline 10E7 copies/mL",4.05
same,OR of response (clearance) at Day 7 vs Placebo,"SARS-CoV-2; Adjusted for viral load with interaction, baseline 10E8 copies/mL",5.23
same,OR of response (clearance) at Day 7 vs Placebo,"SARS-CoV-2; Adjusted for viral load with interaction, baseline 10E9 copies/mL",6.76
same,OR of response (clearance) at Day 7 vs Placebo,"SARS-CoV-2; Crude, all patients",2.32
same,OR of response (clearance) at Day 7 vs Placebo,"SARS-CoV-2; Crude, ≥10E6 copies/mL at baseline",6.25
same,viral load decline greater than in placebo group,"SARS-CoV-2; Day 3, all patients",0.82 log copies/mL
same,viral load decline greater than in placebo group,"SARS-CoV-2; Day 5, all patients",1.67 log copies/mL
same,viral load decline greater than in placebo group,"SARS-CoV-2; Day 7, all patients",2.42 log copies/mL
same,viral load decline greater than in placebo group,"SARS-CoV-2; Day 14, all patients",1.77 log copies/mL
same,median time to viral clearance,SARS-CoV-2; [2],7 (95% CI 6.2-7.8) days
same,"undetectable at Day 7, participants",SARS-CoV-2; [2],15 of 19
same,"undetectable at Day 7, proportion",SARS-CoV-2; [2],79%
same,OR undetectable at Day 7 vs placebo,SARS-CoV-2; [3],0.35
same,"undetectable at Day 7, participants",SARS-CoV-2; [3],9 of 11
same,"undetectable at Day 7, proportion",SARS-CoV-2; [3],82%
same,"negative for SARS-CoV-2 RNA, participants","SARS-CoV-2; by Day 7, all patients",24/30
same,"negative for SARS-CoV-2 RNA, proportion","SARS-CoV-2; by Day 7, all patients",80%
same,viral level decrease in absolute terms,"SARS-CoV-2; by Day 7, all patients",5.5 log copies/mL
same,viral load decline,"SARS-CoV-2; by Day 7, baseline viral load at or above 10E6 copies/mL",7.17 log copies/mL
same,"detectable virus at Day 7, participants",SARS-CoV-2; high baseline viral load,4 of 19
same,"detectable virus at Day 7, proportion",SARS-CoV-2; high baseline viral load,21%
same,OR of response at Day 7 for viral load at baseline within the IFN Lambda group,"SARS-CoV-2; interaction model, all patients",0.82
same,shedding of infectious virus at day 7,SARS-CoV-2; interferon lambda group,all subjects were below the level of shedding infectious virus at day 7
same,"TEAE, Grade 1, % of patients",[1]; [4],(1.7%)
same,"TEAE, Grade 1, RR (95% CrI) vs placebo",[1]; [4],"0.75 (0.40, 1.38)"
same,"TEAE, Grade 2, % of patients",[1]; [4],(9%)
same,"TEAE, Grade 2, RR (95% CrI) vs placebo",[1]; [4],"1.00 (0.75, 1.33)"
same,"TEAE, Grade 3, % of patients",[1]; [4],(2.2%)
same,"TEAE, Grade 3, RR (95% CrI) vs placebo",[1]; [4],"0.70 (0.40, 1.20)"
same,"TEAE, Grade 4, % of patients",[1]; [4],(0.8%)
same,"TEAE, Grade 4, RR (95% CrI) vs placebo",[1]; [4],"1.11 (0.41, 3.05)"
same,"TEAE, Grade 5, % of patients",[1]; [4],(0.3%)
same,"TEAE, Grade 5, RR (95% CrI) vs placebo",[1]; [4],"0.88 (0.21, 3.40)"
same,Number experiencing TEAEs: %,[1]; N = 931,(14.7%)
same,Number experiencing TEAEs: n,[1]; N = 931,137
same,Number experiencing possibly treatment-related TEAS: %,[1]; N = 931,(0.4%)
same,Number experiencing possibly treatment-related TEAS: n,[1]; N = 931,4
same,Number experiencing serious TEAEs: %,[1]; N = 931,(3.4%)
same,Number experiencing serious TEAEs: n,[1]; N = 931,32
same,"TEAE, Grade 1: %",[1]; N = 931,(2.9%)
same,"TEAE, Grade 1: n",[1]; N = 931,27
same,"TEAE, Grade 2: %",[1]; N = 931,(9.2%)
